B1: PLAGL1 (parent)
chain: DPNKMAFGCEECGKKYNTMLGYKR
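Note: lentivirally expressed fusions sorted by FACS into six bins by GFP to DsRed ratio, PSI derived from sequencing read proportions per bin multiplied by bin number.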

In the data set the parent is B1. The experiment in a line: protein stability index of a GFP-peptide fusion (GPS, HEK-293T) (PSI 1-6); higher = more stable. Particulars: c terminus: a fixed tail appended.
As for DPNKMAFGCEECGKKYMTMLGYKR [N17M], the protein stability index worked out at 1.75.

For the variant DPNKMAFGCEECGKKYTTMLGYKR [N17T], the protein stability index stood at 1.99. The result for DPNKMAFGCEECGKKYCTMLGYKR [N17C] reads 2.2; that for DPNKMAFGCEECGKKYLTMLGYKR [N17L], 1.91; that for DPNKMAFGCEECGKKYQTMLGYKR [N17Q], 2.73. Next, DPNKMAFGCEECGKKYVTMLGYKR [N17V]: 1.78; DPNKMAFGCEECGKKYSTMLGYKR [N17S]: 1.66; DPNKMAFGCEECGKKYGTMLGYKR [N17G]: 1.52. With DPNKMAFGCEECGKKYITMLGYKR [N17I], the protein stability index is 2.44. Next, DPNKMAFGCEECGKKYPTMLGYKR [N17P]: 2.35. In the case of DPNKMAFGCEECGKKYRTMLGYKR [N17R], the protein stability index was 2.02. Next, DPNKMAFGCEECGKKYETMLGYKR [N17E]: 2.31. With DPNKMAFGCEECGKKYWTMLGYKR [N17W], the protein stability index was 1.76. Consider DPNKMAFGCEECGKKYFTMLGYKR [N17F], for which the protein stability index turned out to be 3.25. The result for DPNKMAFGCEECGKKYATMLGYKR [N17A] reads 2.82; that for DPNKMAFGCEECGKKYKTMLGYKR [N17K], 3.06; that for DPNKMAFGCEECGKSYNTMLGYKR [K15S], 1.96. Next, DPNKMAFGCEECGKAYNTMLGYKR [K15A]: 2.73; DPNKMAFGCEECGKQYNTMLGYKR [K15Q]: 3.14. Next, DPNKMAFGCEECGKCYNTMLGYKR [K15C]: 2.63. Turning to DPNKMAFGCEECGKHYNTMLGYKR [K15H], the protein stability index came to 1.98. Next, DPNKMAFGCEECGKMYNTMLGYKR [K15M]: 1.73; DPNKMAFGCEECGKVYNTMLGYKR [K15V]: 2.27; DPNKMAFGCEECGKEYNTMLGYKR [K15E]: 3.03. For the variant DPNKMAFGCEECGKPYNTMLGYKR [K15P], the protein stability index was determined as 2.81. The result for DPNKMAFGCEECGKFYNTMLGYKR [K15F] reads 1.81. The result for DPNKMAFGCEECGKNYNTMLGYKR [K15N] reads 2.99; that for DPNKMAFGCEECGKLYNTMLGYKR [K15L], 2.19. As to DPNKMAFGCEECGKWYNTMLGYKR [K15W], the protein stability index was found to be 2.27. The result for DPNKMAFGCEECGKGYNTMLGYKR [K15G] reads 2.3; that for DPNKMAFGCEECGKTYNTMLGYKR [K15T], 2.58. Next, DPNKMAFGCEECGKIYNTMLGYKR [K15I]: 1.58; DPNKMAFGCEECGKDYNTMLGYKR [K15D]: 3.12; DPNKMAFGCEECGKYYNTMLGYKR [K15Y]: 1.71. Next, DPNKMAFGCEECGKRYNTMLGYKR [K15R]: 1.52.

For DPNKMAFLCEECGKKYNTMLGYKR [G8L], the protein stability index came to 2.82. Next, DPNKMAFQCEECGKKYNTMLGYKR [G8Q]: 1.98. The result for DPNKMAFTCEECGKKYNTMLGYKR [G8T] reads 3.12; that for DPNKMAFSCEECGKKYNTMLGYKR [G8S], 2.19; that for DPNKMAFPCEECGKKYNTMLGYKR [G8P], 2.31. The result for DPNKMAFVCEECGKKYNTMLGYKR [G8V] reads 2.92. Consider DPNKMAFNCEECGKKYNTMLGYKR [G8N], for which the protein stability index came to 2.74. Next, DPNKMAFYCEECGKKYNTMLGYKR [G8Y]: 2.21; DPNKMAFWCEECGKKYNTMLGYKR [G8W]: 2.03; DPNKMAFMCEECGKKYNTMLGYKR [G8M]: 1.96.

With DPNKMAFGCEECGKKYNGMLGYKR [T18G], the protein stability index came to 3.07. In the case of DPNKMAFGCEECGKKYNDMLGYKR [T18D], the protein stability index was 2.42.

For DPNKMAFGCEECGKKYNKMLGYKR [T18K], the protein stability index turned out to be 3.01.

On to DPNKMAFGCEECGKKYNEMLGYKR [T18E], for which the protein stability index stood at 2.77. Regarding DPNKMAFGCEECGKKYNFMLGYKR [T18F], the protein stability index was found to be 2.15. Turning to DPNKMAFGCEECGKKYNLMLGYKR [T18L], the protein stability index came to 1.85. Next, DPNKMAFGCEECGKKYNCMLGYKR [T18C]: 2.35. The result for DPNKMAFGCEECGKKYNIMLGYKR [T18I] reads 2.63; that for DPNKMAFGCEECGKKYNMMLGYKR [T18M], 2.18; that for DPNKMAFGCEECGKKYNHMLGYKR [T18H], 2.81. The result for DPNKMAFGCEECGKKYNAMLGYKR [T18A] reads 3.2; that for DPNKMAFGCEECTKKYNTMLGYKR [G13T], 2.33; that for DPNKMAFGCEECNKKYNTMLGYKR [G13N], 2.12. As to DPNKMAFGCEECRKKYNTMLGYKR [G13R], the protein stability index is 2.53.

Take DPNKMAFGCEECLKKYNTMLGYKR [G13L]: the protein stability index amounted to 3.01. Next, DPNKMAFGCEECSKKYNTMLGYKR [G13S]: 2.98; DPNKMAFGCEECAKKYNTMLGYKR [G13A]: 2.33; DPNKMAFGCEECEKKYNTMLGYKR [G13E]: 2.63. Next, DPNKMAFGCEECYKKYNTMLGYKR [G13Y]: 2.32. As for DPNKMAFGCEECMKKYNTMLGYKR [G13M], the protein stability index is 1.82. Next, DPNKMAFGCEECWKKYNTMLGYKR [G13W]: 3.27. The result for DPNKMAFGCEECQKKYNTMLGYKR [G13Q] reads 2.35. Next, DPNKMAFGCEECHKKYNTMLGYKR [G13H]: 2.45; DPNKMAFGCEECCKKYNTMLGYKR [G13C]: 1.97; DPNKMAFGCEECVKKYNTMLGYKR [G13V]: 1.39.

Consider DPNKMAFGCEECKKKYNTMLGYKR [G13K], for which the protein stability index amounted to 2.04.

As to DPNKMAFGCEECPKKYNTMLGYKR [G13P], the protein stability index is 3.96. The result for DPNKMAFGCEECDKKYNTMLGYKR [G13D] reads 2.81; that for DPNKMAFGCEECFKKYNTMLGYKR [G13F], 1.93.

For the variant DPNKMAFGCEECIKKYNTMLGYKR [G13I], the protein stability index turned out to be 2.49. The result for DPNKMAFGCEEEGKKYNTMLGYKR [C12E] reads 4.78. Next, DPNKMAFGCEEIGKKYNTMLGYKR [C12I]: 2.6. The result for DPNKMAFGCEEAGKKYNTMLGYKR [C12A] reads 4.36. In the case of DPNKMAFGCEESGKKYNTMLGYKR [C12S], the protein stability index amounted to 3.52. The result for DPNKMAFGCEETGKKYNTMLGYKR [C12T] reads 3.78; that for DPNKMAFGCEEDGKKYNTMLGYKR [C12D], 4.49; that for DPNKMAFGCEERGKKYNTMLGYKR [C12R], 4.61. The result for DPNKMAFGCEEGGKKYNTMLGYKR [C12G] reads 4.29.

Consider DPNKMAFGCEEPGKKYNTMLGYKR [C12P], for which the protein stability index came out at 4.01. The result for DPNKMAFGCEEYGKKYNTMLGYKR [C12Y] reads 3.92; that for DPNKMAFGCEEWGKKYNTMLGYKR [C12W], 2.93; that for DPNKMAFGCEEVGKKYNTMLGYKR [C12V], 4.43.

In the case of DPNKMAFGCEEKGKKYNTMLGYKR [C12K], the protein stability index is 4.4. For the variant DPNKMAFGCEENGKKYNTMLGYKR [C12N], the protein stability index came to 4.1. In the case of DPNKMAFGCEEQGKKYNTMLGYKR [C12Q], the protein stability index is 4.24. Next, DPNKMAFGCEEFGKKYNTMLGYKR [C12F]: 3.44; DPNKMAFGCEELGKKYNTMLGYKR [C12L]: 3.3; DPNKMAFGCEEMGKKYNTMLGYKR [C12M]: 3.93. Regarding DPNKMAFGCEEHGKKYNTMLGYKR [C12H], the protein stability index was 2.98.
